From publication PMC12045373 come the findings set out here.

The target in the assay is human c-type lysozyme purified from human neutrophils (HL) (human) (UniProt P61626).
Chain of UniProt P61626 (P61626 19-148): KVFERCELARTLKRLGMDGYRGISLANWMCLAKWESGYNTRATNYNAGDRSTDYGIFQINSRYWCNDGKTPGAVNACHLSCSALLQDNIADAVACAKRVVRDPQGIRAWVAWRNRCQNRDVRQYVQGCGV

As for “recombinant, mature Neisseria gonorrhoeae Adhesin Complex Protein (rACP) (natural protein)”, the percent of HL hydrolytic activity restored in the presence of rACP by pooled terminal RO serum (polyclonal) of mice immunized with rACP alone was found to be 19.3%, the percent of HL hydrolytic activity restored in the presence of rACP by pooled terminal RO serum (polyclonal) of mice immunized with rACP+CpG amounted to 59.9%, the percent of HL hydrolytic activity restored in the presence of rACP by pooled terminal SV serum (polyclonal) of mice immunized with rACP alone is 30.1% and the percent of HL hydrolytic activity restored in the presence of rACP by pooled terminal SV serum (polyclonal) of mice immunized with rACP+CpG worked out at 75.2%.
